Results reported in the supplement of paper PMC9170038.

Tests used:
MS2 coat protein [1] = test: apparent KD of MS2 coat protein, switch ON state; designed switch direction (-1 OFF switch, 1 ON switch): -1; higher = weaker reporter binding; conditions: FMN input: 0 or 200 uM; Eterna round: R93 (includes R88 designs)
Outline: (§1)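 Designed RNA switches were transcribed on-chip from Illumina sequencing clusters. SNAP-549-labelled MS2 coat protein was titrated onto them in twofold steps from 0.7 or 1.5 nM to 3 µM in 100 mM Tris-HCl pH 7.5, 80 mM KCl, 4 mM MgCl2, either without or with constant ligand. Apparent KD reflects the per-design median of normalised cluster binding-curve fits.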

MS2 coat protein [2] = test: apparent KD of MS2 coat protein, switch OFF state (with FMN for OFF switches, without FMN for ON switches); designed switch direction (-1 OFF switch, 1 ON switch): -1; higher = weaker reporter binding; conditions: FMN input: 0 or 200 uM; Eterna round: R93 (includes R88 designs)
Outline: as §1

Sequence: GAAAAGGCAGGAUAUACAGGAUAUAGAAGGAGGAUAUAGAGACAUGAGGAUCACCCAUGUAGAAGGGCCAAAAG [Diamond 80]
- apparent KD of MS2 coat protein (MS2 coat protein [1]): 48.3 nM
- apparent KD of MS2 coat protein (MS2 coat protein [2]): 113 nM

Sequence: GAAAAGUGAGGAUAUGCGAAGGCGUCUGAUAGACGAGGCUAGCAGAAGGCACAUGAGGAUCACCCAUGUGGGAA [Mat - Exclusion 4 - Eli mod - D91]
- apparent KD of MS2 coat protein (MS2 coat protein [1]): 71.6 nM
- apparent KD of MS2 coat protein (MS2 coat protein [2]): 133 nM

Sequence: GAAAAGUGAGGAUAUUCGGAUAGGAAAACGAAAACCUAUCCGAAGAAGGCACAUGAGGAUCACCCAUGUGGAAG [Mat - Exaclusion 4 - Eli mod - D46]
- apparent KD of MS2 coat protein (MS2 coat protein [1]): 26.1 nM
- apparent KD of MS2 coat protein (MS2 coat protein [2]): 30.7 nM

Sequence: GAAAAUGGAGGAUAUACAUGAGGAUCACCCAUGUGUAUAAAAAAAUACACAAAAGAAAGUAGAAGGCCAUAAAG [Mat - Exclusion 3 - Mayanna mod - D101]
- apparent KD of MS2 coat protein (MS2 coat protein [1]): 31.4 nM
- apparent KD of MS2 coat protein (MS2 coat protein [2]): 114 nM

Sequence: GAAAGGGCAGGAUAUGCAGAGAGAGAGAGAGAGAGAGAGAAACAUGAGGAUCACCCAUGUAGAAGGGCCGAAAG [salish99-ex2-07]
- apparent KD of MS2 coat protein (MS2 coat protein [1]): 30.9 nM
- apparent KD of MS2 coat protein (MS2 coat protein [2]): 29.2 nM

Sequence: GAAAUACAUGAGGAUCACCCAUGUGAGGAUAUGCUAUGGAAAUAAAAAAUAAAACAUAGCAGAAGGUACAAAAG [Mat - Exclusion 1 - Eli mod - D43]
- apparent KD of MS2 coat protein (MS2 coat protein [1]): 21.8 nM
- apparent KD of MS2 coat protein (MS2 coat protein [2]): 54.6 nM

Sequence: GAAGAACAUGAGGAUCACCCAUGUCAGGAUAUACAGAAGGGAAUAAAAUAACCUGAAAGUAGAAGGGACAAGAA [Ex 1 May 42]
- apparent KD of MS2 coat protein (MS2 coat protein [1]): 29 nM
- apparent KD of MS2 coat protein (MS2 coat protein [2]): 57.2 nM

Sequence: GAAGUGUUAGGAUAUCGAUGAAUAAUAAAACAAAGGAACAUUGAGAAGGAACAUGAGGAUCACCCAUGUAUAAC [May 81]
- apparent KD of MS2 coat protein (MS2 coat protein [1]): 27.7 nM
- apparent KD of MS2 coat protein (MS2 coat protein [2]): 25.2 nM

Sequence: GAGAAGUGAGGAUAUCGAAGACAGACGAAAAGUCUGUCAAACGAGAAGGCACAUGAGGAUCACCCAUGUGGGAA [Mat - Exaclusion 4 - Eli mod - D76]
- apparent KD of MS2 coat protein (MS2 coat protein [1]): 75.8 nM
- apparent KD of MS2 coat protein (MS2 coat protein [2]): 140 nM

Sequence: GAGAAGUGAGGAUAUCGAAGACAGACGAAAAGUCUGUCAAACGAGAAGGCACAUGAGGAUCACCCAUGUGGGAG [Mat - Exaclusion 4 - Eli mod - D75]
- apparent KD of MS2 coat protein (MS2 coat protein [1]): 81.2 nM
- apparent KD of MS2 coat protein (MS2 coat protein [2]): 302 nM

Sequence: GAGGUAUGAGGAUAUACAUAGAUACAGACACAUGUUCAAGUACAUGAGGAUCACCCAUGUAGAAGGCAUAUAUC [Mat - Same state - Mayanna Mod - D105]
- apparent KD of MS2 coat protein (MS2 coat protein [1]): 22 nM
- apparent KD of MS2 coat protein (MS2 coat protein [2]): 37.2 nM

Sequence: GCUGUGCAAGGAUAUACAUGAGGAUCACCCAUGUGAGAGAAAAAAGUGAGAAAGAAAAGUAGAAGGUGCGUAGG [salish99-ex3-99]
- apparent KD of MS2 coat protein (MS2 coat protein [1]): 36.5 nM
- apparent KD of MS2 coat protein (MS2 coat protein [2]): 43.3 nM

Sequence: GCUUGGCAAGGAUAUACAUGAGGAUCACCCAUGUGAGAGAAAAAAGUGAGAAAGAAAAGUAGAAGGUGUUGAGG [salish99-ex3-76]
- apparent KD of MS2 coat protein (MS2 coat protein [1]): 44.4 nM
- apparent KD of MS2 coat protein (MS2 coat protein [2]): 48.9 nM

Sequence: GCUUGGGUAGGAUAUACAUGAGGAUCACCCAUGUGAGAGAAAAAAGUGAGAAAGAAAAGUAGAAGGACUUGAGG [salish99-ex3-83]
- apparent KD of MS2 coat protein (MS2 coat protein [1]): 177 nM
- apparent KD of MS2 coat protein (MS2 coat protein [2]): 174 nM

Sequence: GGAAAACAUGAGGAUCACCCAUGUAAGGAUAUGCAAAAGGAUAUAGAAGGAAAAAAAAGCAGAAGGUACAAAGG [salish99-ex1-21]
- apparent KD of MS2 coat protein (MS2 coat protein [1]): 32.5 nM
- apparent KD of MS2 coat protein (MS2 coat protein [2]): 151 nM

Sequence: GGAAAACAUGAGGAUCACCCAUGUGAGGAUAUCCAGGAUAUAGAAGGAGGAUAUAGAAGGAGAAGGCACGAAGG [salish99-ex1-18]
- apparent KD of MS2 coat protein (MS2 coat protein [1]): 28.6 nM
- apparent KD of MS2 coat protein (MS2 coat protein [2]): 33.1 nM

Sequence: GGAAAACAUGAGGAUCACCCAUGUGAGGAUAUCGAUGUCCAAAAAAAAGUGCGGGACUCGAGAAGGCACUUGGC [salish99-ex1-33]
- apparent KD of MS2 coat protein (MS2 coat protein [1]): 51.5 nM
- apparent KD of MS2 coat protein (MS2 coat protein [2]): 34.3 nM

Sequence: GGAAAGCAAGGAUAUGCAAACAAACAAACAAACAAAAGGGAACAUGAGGAUCACCCAUGUAGAAGGUGCAAACA [Exclusion 2 Two redone]
- apparent KD of MS2 coat protein (MS2 coat protein [1]): 41.9 nM
- apparent KD of MS2 coat protein (MS2 coat protein [2]): 28.6 nM

Sequence: GGAAAGCGAGGAUAUACAUGAGGAUCACCCAUGUAAAAGAAAAGAAAAGAAAGAAAAUGUAGAAGGCGCAAAAA [Exclusion 3 plus]
- apparent KD of MS2 coat protein (MS2 coat protein [1]): 53.5 nM
- apparent KD of MS2 coat protein (MS2 coat protein [2]): 54.4 nM

Sequence: GGAACACAUGAGGAUCACCCAUGUCAGGAUAUGUAGAUAAAAAGAAAAUAAAAUAAAAACAGAAGGGACAAAAG [May 3]
- apparent KD of MS2 coat protein (MS2 coat protein [1]): 76 nM
- apparent KD of MS2 coat protein (MS2 coat protein [2]): 73.3 nM

Sequence: GGAGGCGAAGGAUAUACAUGAGGAUCACCCAUGUGAGAGAAAAAAGUGAGAAAGAAAAGUAGAAGGUCGUUUCG [salish99-ex3-128]
- apparent KD of MS2 coat protein (MS2 coat protein [1]): 43.5 nM
- apparent KD of MS2 coat protein (MS2 coat protein [2]): 81 nM

Sequence: GGAGGCGUAGGAUAUACAUGAGGAUCACCCAUGUGAGAGAAAAAAGUGAGAAAGAAAAGUAGAAGGACGUUUCG [salish99-ex3-127]
- apparent KD of MS2 coat protein (MS2 coat protein [1]): 45.4 nM
- apparent KD of MS2 coat protein (MS2 coat protein [2]): 92.1 nM

Sequence: GGAUGCGAAGGAUAUACAUGAGGAUCACCCAUGUGAGAGAAAAAAGUGAGAAAGAAAAGUAGAAGGUCGUGUCG [salish99-ex3-93]
- apparent KD of MS2 coat protein (MS2 coat protein [1]): 28.8 nM
- apparent KD of MS2 coat protein (MS2 coat protein [2]): 97.2 nM

Sequence: GGGUCACAUGAGGAUCACCCAUGUAAGGAUAUGCUAGGGAUGGAAACCAGGCCGCAACGCAGAAGGUACUAAAG [Janelle Amethyst 18 Mod 13 - Jieux - Exclusion 1]
- apparent KD of MS2 coat protein (MS2 coat protein [1]): 50.7 nM
- apparent KD of MS2 coat protein (MS2 coat protein [2]): 64.5 nM

Sequence: GGUUGGCGAGGAUAUACAUGAGGAUCACCCAUGUGAGAGAAAAAAGAGAGAAAGAAAAGUAGAAGGCGCUGACG [salish99-ex3-52]
- apparent KD of MS2 coat protein (MS2 coat protein [1]): 47.9 nM
- apparent KD of MS2 coat protein (MS2 coat protein [2]): 97.8 nM

Sequence: GGUUGGCGAGGAUAUACAUGAGGAUCACCCAUGUGAGAGAAAAAAGUGAGAAAGAAAAGUAGAAGGCGCUGACA [salish99-ex3-03]
- apparent KD of MS2 coat protein (MS2 coat protein [1]): 58.8 nM
- apparent KD of MS2 coat protein (MS2 coat protein [2]): 283 nM

Sequence: GGUUGGCGAGGAUAUACAUGAGGAUCACCCAUGUGAGAGAAAAAAGUGAGACAGAAAAGUAGAAGGCGCUGACG [salish99-ex3-24]
- apparent KD of MS2 coat protein (MS2 coat protein [1]): 65.8 nM
- apparent KD of MS2 coat protein (MS2 coat protein [2]): 7.45 nM

Sequence: GGUUGUGGAGGAUAUACAUGAGGAUCACCCAUGUGAGAGAAAAAAGUGAGAAAGAAAAGUAGAAGGUCAUGACG [salish99-ex3-65]
- apparent KD of MS2 coat protein (MS2 coat protein [1]): 33.8 nM
- apparent KD of MS2 coat protein (MS2 coat protein [2]): 46.8 nM

Sequence: GGUUUGGUAGGAUAUACAUGAGGAUCACCCAUGUGAGAGAAAAAAGUGAGAAAGAAAAGUAGAAGGACCGGACG [salish99-ex3-123]
- apparent KD of MS2 coat protein (MS2 coat protein [1]): 39.9 nM
- apparent KD of MS2 coat protein (MS2 coat protein [2]): 102 nM

Sequence: GUCAGCUGAGGAUAUACAGGUGAGGCCGCAGGACAAAAUAUACAUGAGGAUCACCCAUGUAGAAGGCGGAAGAC [Vegea]
- apparent KD of MS2 coat protein (MS2 coat protein [1]): 33.8 nM
- apparent KD of MS2 coat protein (MS2 coat protein [2]): 44.5 nM

Sequence: GUCAGCUGAGGAUAUACAGGUGAUGCCGCAGAACAAAAUAUACAUGAGGAUCACCCAUGUAGAAGGCGGAAGAC [Terian]
- apparent KD of MS2 coat protein (MS2 coat protein [1]): 49.4 nM
- apparent KD of MS2 coat protein (MS2 coat protein [2]): 44.1 nM

Sequence: GUGUACAGAGGAUAUACAUGGGCAUGAAAACAUGCAUCCUCACAUGAGGAUCACCCAUGUAGAAGGCUGUACAC [Ex2: 706]
- apparent KD of MS2 coat protein (MS2 coat protein [1]): 24.5 nM
- apparent KD of MS2 coat protein (MS2 coat protein [2]): 25.7 nM

Sequence: UAAAAGCGAGGAUAUACAUGAGGAUCACCCAUGUGAAAGAAAAAUAAAAAAAAAAAAAGUAGAAGGCGCUAAAA [Ex 3 #2]
- apparent KD of MS2 coat protein (MS2 coat protein [1]): 58.9 nM
- apparent KD of MS2 coat protein (MS2 coat protein [2]): 65.7 nM

Sequence: UAAAAGUGAGGAUAUUCGGAUAGGAAAACGAAAACCUAUCCGAAGAAGGCACAUGAGGAUCACCCAUGUAAAAU [Mat - Exaclusion 4 - Eli mod - D37]
- apparent KD of MS2 coat protein (MS2 coat protein [1]): 33.1 nM
- apparent KD of MS2 coat protein (MS2 coat protein [2]): 48 nM

Sequence: UAAAGACAUGAGGAUCACCCAUGUGAGGAUAUAGGUGUAUGCAAAAAAAAGCAUACACCUAGAAGGCACAGAAA [JR_Exc001_Sub303]
- apparent KD of MS2 coat protein (MS2 coat protein [1]): 44 nM
- apparent KD of MS2 coat protein (MS2 coat protein [2]): 76.3 nM

Sequence: UAAAGACAUGAGGAUCACCCAUGUGAGGAUAUCGGAGGUGACGGAGCAUCGAGUUCGGCGAGAAGGCGCAGGAA [JR_Exc001_Sub409]
- apparent KD of MS2 coat protein (MS2 coat protein [1]): 67.2 nM
- apparent KD of MS2 coat protein (MS2 coat protein [2]): 53.4 nM

Sequence: UAAAGACAUGAGGAUCACCCAUGUGAGGAUAUGUGAGACAACAGAACAUCAAGUACAAGCAGAAGGCACAGAAA [JR_Exc001_Sub019]
- apparent KD of MS2 coat protein (MS2 coat protein [1]): 51.8 nM
- apparent KD of MS2 coat protein (MS2 coat protein [2]): 62.7 nM

Sequence: UAAAGGAUAGGAUAUACAUGAGGAUCACCCAUGUGAAUAAAUAAAAAAAUAAAAUAAAGUAGAAGGAUCAAUAA [LROPPY Exclusion 3 - v04_deltaG=3.9 break up As]
- apparent KD of MS2 coat protein (MS2 coat protein [1]): 32.2 nM
- apparent KD of MS2 coat protein (MS2 coat protein [2]): 34 nM

Sequence: UAAAGGAUAGGAUAUACAUGAGGAUCACCCAUGUGAAUAAAUAAGAAAAUAAAAGAAAGUAGAAGGAUCAAGAA [LROPPY Exclusion 3 - v04_deltaG=3.9 break up As mixed]
- apparent KD of MS2 coat protein (MS2 coat protein [1]): 25.2 nM
- apparent KD of MS2 coat protein (MS2 coat protein [2]): 29.6 nM
